Assay results as given in patent US20060269538A1.

Tests used:
[1] = target: variant E (trypsin mutant of SEQ ID NO:5) (human); test: cell-based or functional assay; conditions: scale: % of the serum concentration of anti-plasmin
[2] = target: variant D (trypsin mutant of SEQ ID NO:5) (human); test: cell-based or functional assay; conditions: scale: % of the serum concentration of anti-plasmin
Chain of variant D (trypsin mutant of SEQ ID NO:5) (human) (chain, as listed by the source mutant limits assumed): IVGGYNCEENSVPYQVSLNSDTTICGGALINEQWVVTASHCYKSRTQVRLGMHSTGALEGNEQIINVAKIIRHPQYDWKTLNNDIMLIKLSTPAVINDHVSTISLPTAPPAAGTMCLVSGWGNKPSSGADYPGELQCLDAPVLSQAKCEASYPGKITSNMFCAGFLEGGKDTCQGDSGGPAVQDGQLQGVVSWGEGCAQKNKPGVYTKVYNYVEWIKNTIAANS

Chain of variant E (trypsin mutant of SEQ ID NO:5) (human) (chain, as listed by the source mutant): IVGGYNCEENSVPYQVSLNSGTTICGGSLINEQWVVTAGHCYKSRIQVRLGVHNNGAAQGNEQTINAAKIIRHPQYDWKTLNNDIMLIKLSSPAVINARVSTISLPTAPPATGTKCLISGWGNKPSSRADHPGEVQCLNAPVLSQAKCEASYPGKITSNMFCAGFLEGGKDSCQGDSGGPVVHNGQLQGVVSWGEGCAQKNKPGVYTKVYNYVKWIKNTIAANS

antiplasmin (from UniProt P08697 40-491)
IC50 (inhibitor concentration at 50% residual proteolytic activity; cleavage of fluorescently labelled TNF-alpha) [1]: 40 | IC50 (inhibitor concentration at 50% residual proteolytic activity; cleavage of fluorescently labelled TNF-alpha) [2]: 5
